# B1: Neulasta ®: an FDA-approved radiation treatment drug, single subcutaneous injection (protein, UniProt P09919 31-207, looked up)
# Granulocyte …: TPLGPASSLPQSFLLKCLEQVRKIQGDGAALQEKLVSECATYKLCHPEELVLLGHSLGIPWAPLSSCPSQALQLAGCLSQLHSGLFLYQGLLQALEGISPELGPTLDTLQLDVADFATTIWQQMEELGMAPALQPTQGAMPAFASAFQRRAGGVLVASHLQSFLEVSYRVLRHLAQP
# modifications: pegfilgrastim; PEG, N-terminal Met
# notes: an FDA-approved radiation treatment drug, single subcutaneous injection
# Test system: mice exposed to bilateral whole-body irradiation
# Test: Prophylactic efficacy, 180-day survival after whole-body irradiation
# Type: in vivo
# Settings: single subcutaneous injection 0.3 mg/kg 24 hours after 9.2 Gy whole-body irradiation
# Method: In another study, selected samples of Example 3 were each orally administered at 200 mg Genistein/kg twice per day to groups of mice for 6 consecutive days. A separate vehicle control and genistein group was included for each sample formulation. The mice were then exposed to bilateral whole-body irradiation at a dose of 9.2 Gy at 0.6 Gy/min and the 180-day survival rate was observed. As additional controls, an injectable suspension (200 mg Genistein/kg) and corresponding vehicle were also administered to groups of mice via intramuscular injection 24 hours prior to exposure to bilateral whole-body irradiation at a dose of 9.2 Gy at 0.6 Gy/min. A separate group of mice was also administered a single subcutaneous injection of Neulasta® (0.3 mg/kg), an FDA-approved radiation treatment drug, 24 hours after exposure to bilateral whole-body irradiation at a dose of 9.2 Gy at 0.6 Gy/min. The results of this study are shown in Table 5 as percentage of surviving animals, and the number of surviving animals compared to the total number of animals in the study and depicted in FIG. 3.
molecule,measurement,value
B1,180-Day Survival,56% (9/16)

# Source: US20220273573A1, “SOLID DISPERSION GENISTEIN COMPOSITIONS AND METHODS OF MAKING AND USING THE SAME” (priority 2020, published 2022)
